Laboratory results: the nanobody polyreactivity screen of Harvey et al. (2022)

Assay: yeast display, Sf9 membrane polyspecificity reagent, FACS + sequencing; frameworks hold sequencing errors
Procedure, shortened: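 Polyreactivity labels are assigned by the sorting gate from which each nanobody was recovered. The gates were low and high (top ~1%), set on anti-HA fluorescence for expression and streptavidin fluorescence for reagent binding. Before sorting, galactose-induced (36–48 hours) yeast display cells were stained for 1 hour at 4 °C with 10% biotinylated, detergent-solubilized Sf9 membrane reagent.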

Sequence | polyreactivity (PSR sort gate)
QVQLVEAGGGLVQAGGSLRLSCGASGLTLTYYAMGGYRQAPGKERELVASISRSGGRTYYADSVKGRFTISRDNAKNPVYLQMNSLKPEDTAVYYCNAAWYRGRYDYWGQGTQVTVSS | high polyreactivity
QVQLVESGGGLVQAGGSLRLSCAASGRIFLRNAMGWYRQAPGNERELVATITSRGGSTYYADSVKGRFTISRDNAKNTVYLQMNSLKPEDTAVYYSAADPSRYRSFGYVYGGYYYWGQGTQVTVSS | low polyreactivity
QVQLVESGGGLVQAGGRLRLSCAASGSIFVPNAMGGYRQAPGKERELVAAISGIGGSTSYADSEKGRFTISRDNAKNTVDLHMNSLQQEDTAVYYCARADKLHTRGWGRWGSGSYSWGQGTQVTVSS | low polyreactivity
QVQLVESGGGLVQAGGSLRLSCAASGRTFSRYAMGWYRQAPGKERELVATINTRAGITNYPDSVKGRFTISRDNAKNTVYLQMNSLKPEDTAVYYCNRGRPGGPSWYHYVYWGQGTQVTVSS | high polyreactivity
QVQLVESGGGLVQAGGSLRLSCAASGRIYPYYAMGWYRQAPGKERELVAAITTRGGSTYYADSVKGRFTISRDNAKNTVYLQMNSLKPEDTAVYYCAAVTFGRMEYWGQGTQVTVSS | low polyreactivity
QVQLVESGGRLVQAGGSLRLSCAASGSTYAMGWYRQAPGKERELVASITSRGGSTYYADSVKGRFTISRDNAKNTVYLQMNSLKPEDTAVYYCAARWYFSYIGYDYWGQGTQVTVSS | high polyreactivity
QVQLVESGGGLVQAGGSLRLSCAASGRILYYYAMGWYRQAPGKERELVAAINSSGGSTYYADSVKGRFTISRDNAKNTVYLQMNSLKPEDTAVYYCAALRGNVLWYPPSYFRYDYWGQGTQVTVSS | high polyreactivity
QVQLVESGGGLLQAGGSLRLSCAASGRIFSFNTMGWYRQAPGKERELVAAISRGGSTYYADSVKGRFTNSRDNAKNTVYLQMNSMKPEDTAVYYCNALLPPGSRKYNYWGQGSQVTVSS | high polyreactivity
QVQLVESGGRLVQAGGSLRLSCAASGRTFVTNAMGWYRQAPGQERELVAAISSNGGSTYYADSVKGRFTISRDNAKNTVYLQMNSLKPEDTAVYYCNAEGQPLYVSWHDHRYIYGFDYWGQGTQVTVSS | low polyreactivity
QVQLVESGGGLVQAGGSLRLSCAASGGTFSTNAMGWYRQAPGNERELVAAISLSGGRTDADSVKGRFTISRDNAKNTVYLQMNSLKPEDTAVYYCNADSAGITRARSELDYWGQGTQVTVSS | low polyreactivity
QVQLVESVGGLVQAGGSLRLSCAASGSSIPYYAMGWYRQAPGKERELVARITWRSTSTYADSVKGRFTISRDNAKNTVYLQMNSLKPEDTAVYYCAVRLLSTYIIEYEHWGQGTQVTLSS | low polyreactivity
QVQLVESGGGLVQAGGSLRLSCAASGFTFTDYTMGWYIQAPGTEREFVAAISYRGSNTYYADSVKGRFTISRDNAKNTVYLQMNSLKPLDTAVYYCAADSYRYKYNYWGQGTQVTVSS | high polyreactivity
QVQLVESGGGLVQAGRSLRLSCAASGRTFYHYAMGWYRQAPGKERELVAAIDWSTASTYYADSVKGRFTISRDNAKNTVYLQMNSLIQEDTAVYYCATDSAILINFVLYDYWGQGTQVTVSS | low polyreactivity
QVQLVESGGGLVQAGGSLRLSCAASGRTFTWYAMGWYRQAPGKERELVAAISKSGGSTYYADSVKGRFTISRDNAKNTVYLQMNSLKPEDTAVYYCNADFYGYFLGYGYWGQGTQVTVSS | low polyreactivity
QVQLVESGGGLVQAGGSLRLSCAAYGRIFLGYAMGWYIQAPGKERELVAVISYSGTRTYYADSVKGRFTISRDNAKNTVYLQMNSLKPEDTAVYYCNARANGFKDGYWGQGTQVTVSS | high polyreactivity
QVQLVESGGGLVQAGGSLRLSCAASGRTFPSYTMGWYRQAPGKERELVAAITWTGGSTYYADSVKGRFTISRDNAKNTVYLQMNSLKPEDTAVYYCADYDYWGLGTQVTVSS | low polyreactivity
QVQLVESGGGLVQAGGSLSLSCAASGSTFDRYAMGWYRQAPGKERELVAAISHSGGRTYYADSVKGRFTISRDNAKNTVYLQMNSLKPEDTAVFYCAAKSRSGTEAAYGYWGQGTQVTVSS | low polyreactivity
QVQLVESGGRLVQAGGSLRLRCAASGRTFYWNGMGWYRQSPGKERELVAAITVSVGSTYFADSVKGRFTISRDNAKNTVSLQMNSLKPEDTAVYYCNADAYYEARIWSYRKGDYWGQGTQVTVSS | low polyreactivity
QVQLVESGGGLVQAGGSLRLSCAASGGIFDIYAMGWYRQAPGKERELVAAIRGSGGRTYYADSVKGRFTISRDNAKNTVYLQMNSLKPEDTAVYYCAARPSIVTGLRYGYWGQGTQVTVSS | high polyreactivity
QVQLVESGGGLVQAGGILRLSCAASGRIFHRYTMGWYRQAPGKEREFVAAITTRAGSTYYADSVKGRFTISRDNAKYTVYLQMNSLKPEDTAVYYCNIRRHSLFGGTTTRYDYWGQGTQVTVSS | high polyreactivity
QVQLVESGGGLVQAGGSLRLSCAASGFTFALYTMGSYRQAPGKERELVAAIRSTGSTYADSVKGRFTISRDNAKNTVYLQMNSLKPEDTAVYYCAAQYWRRKKYYYWGQGTQVTVSS | high polyreactivity
